For one experiment, the target named is HLA-A11 (human). Kind of experiment: assembly assay: stabilisation of 35S-labelled HLA-A11 from TAP-deficient cell lysate, W6/32 immunoprecipitation, IEF gel. The note with it: remark: other sources report otherwise.
The target in the next experiment is HLA-B7 (human). Kind of experiment: assembly assay for peptide binding to MHC class I (HLA-B7).

Experimental findings from patent US20040176573A1 are described below.

In the experiment with HLA-A11 (human), LAQCFFCFK [Sur 54-62] registered a C50 of 0.4 µM. RPPIFIRRL (modifications not checked) [C7] showed a C50 with HLA-B7 (human) of 0.5 µM.

As to QPRAPIRPI (modifications not checked) [C6], in the experiment with HLA-B7 (human), the C50 was determined as 0.1 µM.
